# T1: GST-MuRF3RM (MuRF3 amino acids 1-115, RING and MFC domains) (UniProt Q9ERP3 1-115)
# T1 construct: Cloned in pGEX6P3
# T1 sequence (looked up): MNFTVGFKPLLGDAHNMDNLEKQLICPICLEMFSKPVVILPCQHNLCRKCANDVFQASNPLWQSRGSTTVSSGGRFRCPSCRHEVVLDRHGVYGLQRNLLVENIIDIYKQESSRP
# B1: GST-MuRF1RM (MuRF1 amino acids 1-115, RING and MFC domains) (domain or fragment, Rattus norvegicus)
# chain: MDYKSGLIPDGNAMENLEKQLICPICLEMFTKPVVILPCQHNLCRKCANDIFQAANPYWTNRGGSVSMSGGRFRCPSCRHEVIMDRHGVYGLQRNLLVENIIDIYKQECSSRPLQ
# modifications: red fluorescent dye NT-647, covalently, by amine coupling (in the fluorescence assay only)
# notes: MuRF1 / TRIM63, Rattus norvegicus, first 115 amino acids (RING and MFC domains); Cloned in pGEX6P3; Immobilised unlabelled by amine coupling in SPR; labelled with NT-647 in the fluorescence assay; also called MuRF1 (in the SPR section); not shown: GST, N-terminal, kept
# B2: GST-MuRF3 (full length) (enzyme, UniProt Q9ERP3 1-366, looked up)
# chain: MNFTVGFKPLLGDAHNMDNLEKQLICPICLEMFSKPVVILPCQHNLCRKCANDVFQASNPLWQSRGSTTVSSGGRFRCPSCRHEVVLDRHGVYGLQRNLLVENIIDIYKQESSRPLHAKAEQHLMCEEHEDEKINIYCLSCEVPTCSLCKVFGAHKDCEVAPLPTIYKRQKSELSDGIAMLVAGNDRVQAVITQMEEVCQTIEDNSRRQKQLLNQRFETLCAVLEERKGELLQALAREQEEKLQRVRGLIRQYGDHLEGSSKLVESAIQSMEEPQMALYLQQAKELINKVGAMSKVELAGRPEPGYESMEQFSVSVEHVAEMLRTIDFQPGAAGDEEDDDMALDGEEGNAGLEEERLDVPEGSGLH
# modifications: fluorochrome, covalently (NT-647 by amine coupling in the methods; NT115 in the results)
# notes: Cloned in pGEX6P3
# Tests used:
# Assay in all cases: other fluorescence titration; change in the initial fluorescence of dye-labelled GST-MuRF (10 nM, constant) with a 16-sample serial dilution of the E2; MonolithX (NanoTemper), premium capillaries, 100% MST power, 25 °C; 50 mM HEPES pH 7.4, 150 mM NaCl, 0.005% Tween20, 0.1% dextran
# Details in all cases: both partners purified
# GST-MuRF3 (full length) = target: B2
# UBE2L3 wild type = target: T2, UBE2L3 wild type (Mus musculus)
# T2 construct: UBE2L3, Mus musculus, full length (amplified from C2C12 cells); Cloned in pET28a; source: E. coli Rosetta (DE3), purified (Ni-NTA)
# [1] = target: B1
# [2] = target: T1, GST-MuRF3RM (MuRF3 amino acids 1-115, …)
binder,measurement,setting,value
"UBE2J2 cytosolic part, wild type (domain or fragment, Mus musculus, UniProt Q6P073 1-226, looked up, UBE2J2, Mus musculus, cytosolic part (amplified from C2C12 cells); Cloned in pET28a; also called EJ2c; source: E. coli Rosetta (DE3), purified (Ni-NTA)) MSNNSNKRAPTTATQRLKQDYLRIKKDPVPYICAEPLPSNILEWHYVVRGPEMTPYEGGYYHGKLIFPREFPFKPPSIYMITPNGRFKCNTRLCLSITDFHPDTWNPAWSVSTILTGLLSFMVEKGPTLGSIETSDFTKKQLAAQSLVFNLKDKVFCELFPEVVEEIKQKQKAQDELSNRPQNLPLPDVVPDGELHRGQHGIQLLNGHAPAAGPNLAGLPQANRHH",Kd,GST-MuRF3 (full length),24800 nM
"UBE2J1 cytosolic part, wild type (domain or fragment, Mus musculus, UniProt Q9JJZ4 1-282, looked up, UBE2J1, Mus musculus, cytosolic part (amplified from C2C12 cells); Cloned in pET28a; source: E. coli Rosetta (DE3), purified (Ni-NTA)) METRYNLKSPAVKRLMKEAAELKDPTDHYHAQPLEDNLFEWHFTVRGPPDSDFDGGVYHGRIVLPPEYPMKPPSIILLTANGRFEVGKKICLSISGHHPETWQPSWSIRTALLAIIGFMPTKGEGAIGSLDYTPEERRALAKKSQDFCCEGCGSAMKDVLLPLKSGSGSSQADQEAKELARQISFKAEVNSSGKTIAESDLNQCFSLNDSQDDLPTTFQGATASTSYGAQNPSGAPLPQPTQPAPKNTSMSPRQRRAQQQSQRRPSTSPDVLQGQPPRAHHT",Kd,GST-MuRF3 (full length),400 nM
B1,binding result,UBE2L3 wild type,binds
B2,Kd,UBE2L3 wild type,400 nM
"UBE2E1 (enzyme, Mus musculus, UBE2E1, Mus musculus, full length (amplified from C2C12 cells); Cloned in pET28a; source: E. coli Rosetta (DE3), purified (Ni-NTA)) MSDDDSRASTSSSSSSSSNQQTEKEGSTPKKKESKVSMSKNSKLLSTSAKRIQKELADITLDPPPNCSAGPKGDNIYEWRSTILGPPGSVYEGGVFFLDITFTPEYPFKPPKVTFRTRIYHCNINSQGVICLDILKDNWSPALTISKVLLSICSLLTDCNPADPLVGSIATQYMTNRAEHDRMARQWTKRYAT",Kd,[1],400 nM
same,Kd,[2],500 nM
